Reference: the supplement of paper PMC9732359
± gives the uncertainty stated by the source.

Assay: protein stability index of a GFP-peptide fusion (yeast GPS) (PSI 1-4); higher = more stable; sorted into four equal gates, so the index is relative within each strain
Outline: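 Mid-log yeast cultures in leucine-free medium, carrying a pooled plasmid library, were sorted into four equal gates by their GFP/Cherry fluorescence ratio. Each plasmid expressed Cherry along with GFP fused upstream of a tiled 17-residue yeast protein peptide. Plasmids recovered from each gate were PCR-amplified and Illumina-sequenced, with reads assigned to strains by barcodes. The protein stability index was obtained by summing each gate's read frequency weighted by its gate number.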

Sequence | protein stability index (doa10∆) | protein stability index (pdr5∆) | protein stability index (san1∆) | protein stability index (ubr1∆)
HDEKTLAPSKHQPITSE [SIR4] | 2.08 ± 0.088 | 2.27 ± 0.1 | 2.33 ± 0.12 | 2.27 ± 0.22
FVWLSSEENIGSGLLKL [SWI1] | 3.3 ± 0.098 | 3.19 ± 0.09 | 3.28 ± 0.067 | 3.38 ± 0.068
ATAVAHVKAGKGLIKVN [RPS16A] | 1.66 ± 0.2 | 1.9 ± 0.12 |  | 1.21 ± 0.24
RVFNAKDTTGPKAISNF [YCS4] | 2.9 ± 0.1 | 2.82 ± 0.13 | 3.18 ± 0.11 | 2.9 ± 0.1
IYEKLKNYLKNYILNFK [CDC53] | 2.44 ± 0.063 | 1.32 ± 0.055 | 1.17 ± 0.13 | 1.14 ± 0.061
SIEMEEETDDEDKQNIE [RRI2] | 3.25 ± 0.13 | 3.32 ± 0.11 | 3.39 ± 0.062 | 3.19 ± 0.061
SYELRNTTTYKSRPDRP [SNF5] | 3.14 ± 0.06 | 3.3 ± 0.071 | 3.1 ± 0.087 | 3.19 ± 0.067
QRRGPLVVYAEDNGIVK [RPL4A] | 3.43 ± 0.11 | 3.14 ± 0.095 | 2.46 ± 0.093 | 2.68 ± 0.11
PLEKITDAYLDQYLWYE [PRP8] | 3.19 ± 0.13 | 3.36 ± 0.18 | 3.03 ± 0.18 | 3.18 ± 0.12
GDVGKNHITEFPSIPLP [RPC31] | 3.21 ± 0.087 | 3.23 ± 0.087 | 3.31 ± 0.079 | 3.22 ± 0.093
LVHDVVYDFYGRHVATC [YGL100W/SEH1] | 1.46 ± 0.074 | 1.69 ± 0.06 | 1.41 ± 0.12 | 1.38 ± 0.057
FVDDTNVYRVTVHKTFE [PRP8] | 2.68 ± 0.087 | 2.74 ± 0.11 | 2.21 ± 0.096 | 2.52 ± 0.068
KIYNFGELLHHPIMETI [RPN9] | 2.58 ± 0.068 | 2.6 ± 0.074 | 1.84 ± 0.11 | 2.91 ± 0.11
NEPAARLGSEADAKAFL [FAS2] | 3.45 ± 0.065 | 3.42 ± 0.058 | 3.35 ± 0.042 | 3.31 ± 0.077
KKVSRRNARAARAAKIA [RPL13B] | 3.05 ± 0.084 | 2.65 ± 0.11 | 2.63 ± 0.18 | 2.69 ± 0.045
SNVYLSLVNSYIIDSPQ [COB] | 1.76 ± 0.047 | 1.81 ± 0.056 | 2.24 ± 0.071 | 1.71 ± 0.052
AASLIMPFLDNQVNFKN [PRE7] |  | 2.7 ± 0.081 | 1.31 ± 0.17 | 1.39 ± 0.093
NQQQPPQDILSKLYLLL [SNF11] | 2.09 ± 0.042 | 2.55 ± 0.051 | 2.47 ± 0.056 | 2.54 ± 0.045
TSRVFAKIISKAPEQFI [YML103C/NUP188] |  | 3.08 ± 0.14 |  | 
DIFITPTPVVTISEKEQ [SSN2] | 1.76 ± 0.079 | 1.95 ± 0.077 | 1.48 ± 0.12 | 1.67 ± 0.069
KLDSKKILPTDIQLKNL [SRP68] | 2.74 ± 0.1 | 2.78 ± 0.078 | 2.79 ± 0.061 | 2.69 ± 0.059
PRSDDLEATWNFIEPGI [CDC53] | 3.04 ± 0.15 | 3.29 ± 0.13 | 3.15 ± 0.096 | 3.02 ± 0.11
PNKVKTEDIRIRAQNFK [RRP6] | 2.75 ± 0.061 | 2.88 ± 0.082 | 2.56 ± 0.077 | 2.84 ± 0.039
KFDIIIVDTSGRHHQEE [SRP54] | 3.01 ± 0.07 | 2.94 ± 0.046 | 2.71 ± 0.072 | 3.17 ± 0.06
QANIQLYSIREDYELSP [PRE1] | 2.96 ± 0.1 | 2.82 ± 0.093 | 3.01 ± 0.074 | 3.46 ± 0.11
HKHREARGLTATGKKSR [RPL15A] | 3.58 ± 0.2 | 3.37 ± 0.15 | 3.31 ± 0.069 | 3.15 ± 0.068

Sequence | protein stability index (doa10∆) | protein stability index (pdr5∆) | protein stability index (san1∆) | protein stability index (ubr1∆)
AMKELAEKKIPLVIRRY [RPO26] | 1.28 ± 0.087 | 1.55 ± 0.092 | 1.7 ± 0.13 | 1.73 ± 0.11
HKSLIRSISWAPSIGRW [YGL100W/SEH1] | 2.81 ± 0.12 | 3.1 ± 0.11 | 2.21 ± 0.22 | 3.1 ± 0.091
EPKQKANAVQNNNGNSA [SRP21] | 3.07 ± 0.083 | 3.24 ± 0.07 | 2.85 ± 0.19 | 3.24 ± 0.12
SCQIAQPYEDRPFEGLF [RRP45] | 3.33 ± 0.24 | 3.26 ± 0.095 | 3.15 ± 0.086 | 
TNNKKLLEKANNQQRLL [SMC3] | 2.01 ± 0.11 | 1.94 ± 0.091 | 2.58 ± 0.18 | 1.49 ± 0.063
DHYESNQLVAKLLLLRI [SRB8] | 2.84 ± 0.065 | 2.74 ± 0.085 | 2.84 ± 0.1 | 2.34 ± 0.038
NPLADAEEALEPSYIFE [PRE4] | 3.09 ± 0.072 | 2.83 ± 0.077 | 3.08 ± 0.055 | 3.12 ± 0.06
VSEGTRAVTKYSSSTQA [HTB1] | 2.99 ± 0.066 | 3.15 ± 0.1 | 3.16 ± 0.054 | 3.02 ± 0.071
NDTLPDEISPELLSKYK [SNU114] | 2.9 ± 0.067 | 2.8 ± 0.072 | 3.03 ± 0.064 | 2.86 ± 0.075
EPFNAGIKYHATPPLKR [SMC1] | 3.05 ± 0.071 | 3.12 ± 0.071 | 2.79 ± 0.062 | 2.97 ± 0.045
LGVKNLGLCCLLDVKLA [YCG1] | 1.54 ± 0.05 | 1.58 ± 0.045 | 1.82 ± 0.063 | 1.81 ± 0.038
AFGEFSLEGCVEMAWIM [FAS2] | 2.46 ± 0.1 | 2.63 ± 0.12 | 2.48 ± 0.079 | 2.37 ± 0.088
QSTPVLLNHGERAELET [RPN1] | 3.03 ± 0.13 | 2.31 ± 0.12 | 2.02 ± 0.16 | 2.66 ± 0.078
VQYLSGAHGNSDPVCLF [POP3] | 2.96 ± 0.12 | 2.83 ± 0.18 | 3.04 ± 0.11 | 2.75 ± 0.063
QLAVANEIIRSLSDEVM [SIR4] | 3.16 ± 0.077 | 3 ± 0.081 | 2.59 ± 0.12 | 3.21 ± 0.087
SPQLTAIIGLKSGTSHD [SNF12] | 1.52 ± 0.067 | 1.82 ± 0.074 | 1.84 ± 0.12 | 1.66 ± 0.065
TGTGLQDENIGLSMLAK [RPC31] | 3.12 ± 0.14 |  | 3.05 ± 0.13 | 3.4 ± 0.11
GEVMKELSEEKYIVKAS [RPT4] | 3.25 ± 0.061 | 3.38 ± 0.072 | 3.41 ± 0.043 | 3.3 ± 0.042
FSTNVKDEIVLSGNSVE [RPL9A] | 2.03 ± 0.13 | 2.18 ± 0.13 | 2.34 ± 0.13 | 2.59 ± 0.054
QQLAYDLSISALLGDKI [RPN9] | 2.4 ± 0.052 | 2.67 ± 0.058 | 2.47 ± 0.075 | 2.15 ± 0.064
ETDHANTENNDPDIPMT [IRR1] | 2.74 ± 0.09 | 2.59 ± 0.066 | 2.81 ± 0.048 | 2.68 ± 0.07
MTAMRLMLKKLKNSIMS [YML031W/NDC1] | 1.6 ± 0.085 | 1.99 ± 0.087 | 2.16 ± 0.12 | 2.28 ± 0.059
ELGNMTMLITGQRPDRA [SIN4] | 2.54 ± 0.09 | 2.83 ± 0.056 | 2.69 ± 0.09 | 2.31 ± 0.073
KRKCGHTNQLRPKKKLK [RPL40A] | 2.76 ± 0.038 | 2.84 ± 0.036 | 2.942 ± 0.028 | 2.994 ± 0.029
VRIHSIQVLTEASSLGY [IRR1] | 1.49 ± 0.22 | 1.64 ± 0.12 |  | 
VIFKIRDRTSGQKLLAI [SRB4] |  | 3.17 ± 0.2 | 3.5 ± 0.11 | 3.33 ± 0.16
